Assay results: patent publication US12397037B2, “Methods and compositions for immunomodulation” (CHILDREN'S MEDICAL CENTER CORPORATION, priority 2014, dated 2025)

How the values were obtained:
Assay type in all cases: cell-based, human
PI-3K = assay: PI3-Kinase Activity ELISA
Method: FIG. 28A depicts U87MG cells untreated (control) or following treatment with SEMA3F (640 ng/ml) for 30 minutes. Cell lysates were evaluated by phosphoprotein kinase antibody array. FIG. 28B depicts results of the array validated by Western blot analysis. FIG. 28C depicts U87MG cells treated with SEMA3F (640 ng/ml) as a time course up to 60 minutes and were analyzed by Western blot. FIGS. 28B-28C are representative of 3 independent experiments. FIG. 28D depicts U87MG, Jurkat and HUVEC cells treated with SEMA3F (200, 600, 1800 ng/ml, bars from left to right) for 15 minutes (grey bars) or 30 minutes (black bars); as a positive control, HUVEC were treated with VEGF-A (25 ng/ml) for 15 and 30 minutes. In addition, HUVEC were pre-treated with SEMA3F (1800 ng/ml) or PBS as a control for 30 minutes and subsequently VEGF-A (25 ng/ml) was added to the culture for 15 and 30 minutes. PI-3K activity was analyzed by ELISA according to the manufacturer's instructions. Data represent the mean±SD of 3 experiments.
(§1) SEMA3F inhibits Akt, mTOR, and S6K phosphorylation. To determine the effect of SEMA3F on intracellular signaling responses, levels of phosphokinases in the NRP2-expressing human glioblastoma cell line U87MG were profiled.
The VEGF-A (DVE00) ELISA kit was obtained from R&D Systems (Minneapolis, MN). […]

U87MG cells = assay: F-actin stress fiber staining (phalloidin) in U87MG cells
Method: FIG. 30A depicts U87MG cells treated with SEMA3F (640 ng/ml), rapamycin (10 nM) or Torin 1 (10 nM) for 30 minutes. Subsequently, cells were stained with Alexa Fluor 488 phalloidin and Hoechst 33342 to identify F-actin cytoskeleton stress fibers and cellular nuclei, respectively. […] The scale bar indicates 20 μm. FIG. 30B depicts U87MG cells transiently transfected with a pcDNA3.1 empty vector or with a wild type (WT) mTOR plasmid and after 18 hours treated with SEMA3F (640 ng/ml) for 30 minutes. Cells were stained as described above in FIG. 30A. Representative cellular staining is shown; bar graph represents the number of fibers/cell (mean±SD) from 3 independent experiments. FIG. 30C depicts U87MG cells transfected with control siRNA or with raptor- or rictor-specific siRNAs (20 nM). After 48 hours, they were treated with SEMA3F for 30 minutes and stained with Alexa Fluor 488 phalloidin and Hoechst 33342 as above. The number of stress fibers was evaluated in 3 independent experiments and shown as the mean±SD. FIG. 30D depicts U87MG cells transiently transfected with pcDNA3.1 empty vector or with our WT mTOR plasmid. After 18 hours, the cells were treated with SEMA3F (640 ng/ml) for 10 minutes and RhoA activity was evaluated. FIG. 30E depicts U87MG cells transfected with control siRNA or with raptor- or rictor-specific siRNAs (20 nM), were treated with SEMA3F (640 ng/ml) for 10 minutes and RhoA activity was analyzed. In FIGS. 30D-30E, the intensity of active RhoA was normalized to respective total RhoA; the numbers below each gel lane represent the fold-change in intensity relative to control. FIGS. 30D-30E are representative of 3 independent experiments.
mTORC2 links SEMA3F biology with the F-actin cytoskeleton. It was next determined whether the inhibition of mTORC2 serves as an intermediary response to link SEMA3F activity with cytoskeletal collapse. U87MG cells were treated either with SEMA3F (640 ng/ml), rapamycin (10 nM) or Torin 1 (10 nM) for 30 minutes and the actin cytoskeleton was visualized using phalloidin staining. […] These findings indicate that SEMA3F has minimal direct effects on mTORC1.
F-actin staining: Cells were fixed with 4% paraformaldehyde (PFA) followed by permeabilization with 0.2% Triton X-100 in PBS. F-actin and nuclei were stained with Alexa Fluor 488 phalloidin and Hoechst 33342, respectively. Confocal images from 3-5 areas of each culture were reviewed and stress fibers were counted in representative individual cells (˜5/experiment) using standard methodology as described6.

[1] = tested on: U251 glioblastoma cells, a melanocyte cell line, Jurkat T lymphocytes, and endothelial cells; assay: Western blot in other cell lines expressing NRP2; settings: SEMA3F 30 minutes
Method: FIGS. 34A-34D depict analysis of intracellular signaling pathway regulated by SEMA3F. FIG. 34A depicts a Western blot of the expression of pAkt, pmTOR and pS6K in U87MG cells treated with SEMA3F or PBS for 60 minutes and. FIG. 34B depicts a Western blot. U87MG cells were transfected with control or Plexin A1-specific siRNA (20 nM). After 48 hours, cells were treated with SEMA3F (640 ng/ml) for 30 and 60 minutes, and were analyzed by Western blot. FIG. 34C depicts NRP2 and Plexin A1 expression analyzed by Western blot with multiple cell lines. FIG. 34D depicts a Western blot of multiple NRP2-expressing cell lines were treated with SEMA3F for 30 minutes. All data presented are representative of 3 independent experiments.
as §1
Western blotting: Proteins within each sample were separated by SDS-PAGE and transferred to nitrocellulose membranes. […] After washing with TBS-T, membranes were incubated with the appropriate horseradish peroxidase-conjugated secondary antibody, and immunoreactivity was detected by using ECL detection reagents.

VEGF = VEGF protein in conditioned media by ELISA, U87MG cells; settings: SEMA3F, rapamycin 10 nM or Torin 1 10 nM, 30 minutes prior to DFO, supernatants after 18 hours
Method: In each panel data are representative of 3 independent experiments. Bar graphs represent the mean±SD of n=3 experiments performed in triplicate, *, p<0.01 vs. control.
Finally, the effect of SEMA3F on the secretion of VEGF into conditioned media (by ELISA) was determined in the absence or presence of DFO.
The VEGF-A (DVE00) ELISA kit was obtained from R&D Systems (Minneapolis, MN). […] Desferrioxamine (DFO) was purchased from Sigma-Aldrich, and the MEK inhibitor (U0126) was purchased from EMD-Millipore (Billerica, MA). pGL4.74 [hRluc/TK] vector (Promega Madison, WI) was used as an internal control in luciferase assay.

B1: SEMA3F: Human recombinant full-length His-Myc-tagged SEMA3F, secreted by transfected 293T cells and purified; class 3 semaphorin, NRP-2 ligand (protein, listed as Homo sapiens)
chain: MLVAGLLLWASLLTGAWPSFPTQDHLPATPRVRLSFKELKATGTAHFFNFLLNTTDYRILLKDEDHDRMYVGSKDYVLSLDLHDINREPLIIHWAASPQRIEECVLSGKDVNGECGNFVRLIQPWNRTHLYVCGTGAYNPMCTYVNRGRRAQATPWTQTQAVRGRGSRATDGALRPMPTAPRQDYIFYLEPERLESGKGKCPYDPKLDTASALINEELYAGVYIDFMGTDAAIFRTLGKQTAMRTDQYNSRWLNDPSFIHAELIPDSAERNDDKLYFFFRERSAEAPQSPAVYARIGRICLNDDGGHCCLVNKWSTFLKARLVCSVPGEDGIETHFDELQDVFVQQTQDVRNPVIYAVFTSSGSVFRGSAVCVYSMADIRMVFNGPFAHKEGPNYQWMPFSGKMPYPRPGTCPGGTFTPSMKSTKDYPDEVINFMRSHPLMYQAVYPLQRRPLVVRTGAPYRLTTIAVDQVDAADGRYEVLFLGTDRGTVQKVIVLPKDDQELEELMLEEVEVFKDPAPVKTMTISSKRQQLYVASAVGVTHLSLHRCQAYGAACADCCLARDPYCAWDGQACSRYTASSKRRSRRQDVRHGNPIRQCRGFNSNANKNAVESVQYGVAGSAAFLECQPRSPQATVKWLFQRDPGDRRREIRAEDRFLRTEQGLLLRALQLSDRGLYSCTATENNFKHVVTRVQLHVLGRDAVHAALFPPLSMSAPPPPGAGPPTPPYQELAQLLAQPEVGLIHQYCQGYWRHVPPSPREAPGAPRSPEPQDQKKPRNRRHHPPDT
modifications: His-Myc tag
notes: Human recombinant full-length His-Myc-tagged SEMA3F, secreted by transfected 293T cells and purified; class 3 semaphorin, NRP-2 ligand
PI-3K; U87MG, Jurkat and HUVEC, SEMA3F 200, 600, 1800 ng/ml, 15 or 30 minutes
  PI-3K activity: inhibited PI-3K activity
PI-3K; endothelial cells (HUVEC) pre-treated with SEMA3F 1800 ng/ml for 30 minutes, then VEGF-A 25 ng/ml
  VEGF-induced PI-3K activation: inhibited subsequent VEGF-induced PI-3K activation
U87MG cells; U87MG cells transfected with mTOR overexpression construct, SEMA3F 640 ng/ml, 30 minutes
  stress fiber formation in mTOR overexpressing cells: minimal effects on stress fiber formation
U87MG cells; U87MG cells, SEMA3F 640 ng/ml, rapamycin 10 nM or Torin 1 10 nM, 30 minutes, vs untreated
  stress fiber formation and cytoskeletal arrangement: markedly inhibits stress fiber formation and cytoskeletal arrangement
U87MG cells; U87MG cells, siRNA 20 nM, SEMA3F 30 minutes
  stress fiber formation in raptor-siRNA treated cells: reduced stress fiber formation
U87MG cells; pcDNA3.1 control vector transfected U87MG cells, SEMA3F 640 ng/ml, 30 minutes
  inhibition of stress fiber formation: 90%
[1]
  Akt (S473) and S6K phosphorylation: inhibited
VEGF
  DFO-induced VEGF protein secretion: significantly reduced
